{
  "source": "the nanobody polyreactivity screen of Harvey et al. (2022)",
  "data": [
    {"test": "yeast display, Sf9 membrane polyspecificity reagent, FACS + sequencing; frameworks hold sequencing errors", "method_in_brief": "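Nanobodies from a synthetic yeast display library (Saccharomyces cerevisiae BJ5465), induced 36–48 hours with galactose, were stained 1 hour at 4 °C with 10% biotinylated, detergent-solubilized Sf9 membrane reagent, enriched on streptavidin microbeads, then FACS-sorted. Anti-HA (expression) and streptavidin (reagent binding) fluorescence set low and high (top ~1%) gates. Polyreactivity labels come from the gate of origin. Genes were colony-PCR amplified, MiSeq 2 × 250 sequenced and filtered by CDR length.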", "values": [
      {"sequence": "QVQLVESGGRLVQAGGSLRLSCAASGRIFNHYAMGWYRQAPGKERELVAAIDRSGGSTYYADSVKGRFTISRDNAKNTVYFQMNSLKPEDTAVYYCNARRIIAKYGYWGQGTQVTVSS", "polyreactivity (PSR sort gate)": "high polyreactivity"},
      {"sequence": "QVQLVESGGRLVQAGGSLRLSCAASGRIFRRYAMGWYRQAPGKERELVATINSGGTTNYADSVKGRFTISRDNAKNTVYLQMNSLKPEDTAVYYCNARSARYSGFDYWGQGTQVTVSS", "polyreactivity (PSR sort gate)": "high polyreactivity"},
      {"sequence": "QVQLVESGGRLVQAGGSLRLSCAASGRISPYAMGWYRQAPGKERELVAAISSRGGRTYYADSVKGRWTISRDNAKNTVYLEMNSQKPEDTAVYYCAVYPRSTLRTFQRDYWGQGTQVTVSS", "polyreactivity (PSR sort gate)": "high polyreactivity"},
      {"sequence": "QVQLVESGGRLVQAGGSLRLSCAASGSIFAVNTMGWYRQAPGKERELVAAISQRGSSTYYADSVKGRFTISRDNAKNTVYLQMNSLKPEDTAVYYCAKRFIYGRYNYWGQGTQVTVSS", "polyreactivity (PSR sort gate)": "high polyreactivity"},
      {"sequence": "QVQLVESGGRLVQAGGSLRLSCAASGSIFDAYAMGWYRQAPGKERELVAAITTVGSTNYADSVKGRFTISRDNAKNTVYLQMNSLKPEDTAVYYCNADCNTDIVPTPYDYWGQGTQVTVSS", "polyreactivity (PSR sort gate)": "low polyreactivity"},
      {"sequence": "QVQLVESGGRLVQAGGSLRLSCAASGSIFPGNAMGWYRQAPGKDREYVGAISWSGGSTNYADSVKGRFTISRDNAKYTVYLQMNSLKPEDTAVYYCAKRFVRLDPTTQLYGKAYEYWGQGTQVTVSS", "polyreactivity (PSR sort gate)": "high polyreactivity"},
      {"sequence": "QVQLVESGGRLVQAGGSLRLSCAASGSIFVHNAMGWYRQAPGKERDLVAANTWSGGSTYYADSVKGRFTISRDNAKNTVYLQMNSVKPEDTAVYYCAAEDVAAQWAYESPTSYWYYYWGQGTQVTVSS", "polyreactivity (PSR sort gate)": "low polyreactivity"},
      {"sequence": "QVQLVESGGRLVQAGGSLRLSCAASGSIFYTYAMGWYRQAPGKEMELVAAITYRVGSTYYADSVKGRFTISRDNAKNTVYLQMNSLKPEDTAVYYCNADKGGHVRHYDYWGQGTQVTVSS", "polyreactivity (PSR sort gate)": "low polyreactivity"},
      {"sequence": "QVQLVESGGRLVQAGGSLRLSCAASGSILTSYPMGWNRQAPGKERELVAAISTTGGSTYYADSVKGRFTISRDNAKNTVYLQMNSLKPEDTAVYYCAKASGSGGEMDYWGQGTQVTVSS", "polyreactivity (PSR sort gate)": "low polyreactivity"},
      {"sequence": "QVQLVESGGRLVQAGGSLRLSCAASGSNSFRYAIGWDRQAPGKERELVARISSGGSTNYADSVKGRFTISRDNAKNTVYLQMNRLKPEDTAVYYCAKSFRYSVYPYSHYDYWGQGTQVTVSS", "polyreactivity (PSR sort gate)": "high polyreactivity"},
      {"sequence": "QVQLVESGGRLVQAGGSLRLSCAASGSTFSPYTMGCYRQAPGKERELVAGISKSGGRTYYADSVKGRFTISRDNAKNTVYLQMNCLKREVTAVYYCATRSTTDFYCGQGTQVTVSS", "polyreactivity (PSR sort gate)": "high polyreactivity"},
      {"sequence": "QVQLVESGGRLVQAGGSLRLSCAASGSTFWESVLGWNRQSPGKDRELVAAITTNDDSTYYADSVKGRFTISRDNAKNTVYLQMNSLKPEDTAVYYCNAVQITGQFDYWGQGTQVTVSS", "polyreactivity (PSR sort gate)": "low polyreactivity"},
      {"sequence": "QVQLVESGGRLVQAGGSLRLSCAASGYIFDWNAMGWYRQAPGKERELVAAISSGGRTNYADSVKGRFTISRDNAKITVYLQMNSLKPEDTAVYYCAAVYTDPYVEYDYWGQGTQVTVSS", "polyreactivity (PSR sort gate)": "low polyreactivity"},
      {"sequence": "QVQLVESGGRLVQAGGSLRLSCAASRRIFTFYAMGWSRPAPGKERELVAAITGRGGSTYYADSVKGRFTISRDNAKNTVYLQMNSLKPEDTAVYYCAKRTSYRSHRYYYWGQGTQVTVSS", "polyreactivity (PSR sort gate)": "high polyreactivity"},
      {"sequence": "QVQLVESGGRLVQAGGSLRLSCAASVRIFFQNAMGWSRQAPGKERELVAGISGSGGSTYYADSVKGRFTISRDNAKNTVYLQMNSLKPEDTAVYYCAARYGIISSFEYDYWGQGTQVTVSS", "polyreactivity (PSR sort gate)": "high polyreactivity"},
      {"sequence": "QVQLVESGGRLVQAGGSLRLSCASSGSTFVYYAMGWYRPAPGKERELVAVISDDGGTYYADSVKGRFTISRDNAKNTVYLQMNSLKPEDTAVYYCAIDYYGGAYYWYNDRSGDYWGQGTQVTVSS", "polyreactivity (PSR sort gate)": "low polyreactivity"},
      {"sequence": "QVQLVESGGRLVQAGGSLRLSCHASGIIFTAYAMGWYRPAPGKERELVAAITWSGGSTYYADSVKGRFTISRDNAKNTVYLQMNSLKPEDTAVYYCNGERPSFPFNYWGQGTQVTVSS", "polyreactivity (PSR sort gate)": "low polyreactivity"},
      {"sequence": "QVQLVESGGRLVQAGGSLRLSFAACGSILRDNSMGWYRQAPGKEREFVADIRGSYDSTYYADSVKGRFTISRDNAKHTVYLQMNSRKREDTAVYYCNRVDAWQDYDYWGLGTQVTVSS", "polyreactivity (PSR sort gate)": "low polyreactivity"},
      {"sequence": "QVQLVESGGRLVQAGGSLRLSWAASGITFFVNAMGWYRPAPGKERELVAVISRGDSTNYADSVKGRFTISRDNAKNTVYLLMNSLKPEDTAVYYCAADGSRAGLEGNDYWGQGTQVSVSS", "polyreactivity (PSR sort gate)": "low polyreactivity"},
      {"sequence": "QVQLVESGGRLVQAGGSLRLTCAASGSTFPKYAMGWYRQAPGKERELVASISVTTGSTYYADSVKGRFTISRDNAKNTVYLQMNSLKPVDTAVYYCAKRTYSRKFRGAYNYWGQGTQVTVSS", "polyreactivity (PSR sort gate)": "high polyreactivity"},
      {"sequence": "QVQLVESGGRLVQAGGSLRLTCAASGYTYSYYAMGWYRQAPGKERELVAAINYSGGRTYYADSVKGRFTISRDNAKNTVYLQMNSLKPEDTAVYYCAAYTRNGDYDYWGQGTQVTVSS", "polyreactivity (PSR sort gate)": "high polyreactivity"},
      {"sequence": "QVQLVESGGRLVQAGGSLRVSCAASGSTFLFYAMVWYRQAPGKERELVATISRGGSTYYADSVKGRFTISRDNAKNTVYLQMNSQIPEDTAVYYCAARATRVTIAPRYGYWGQGTQVTVSS", "polyreactivity (PSR sort gate)": "low polyreactivity"},
      {"sequence": "QVQLVESGGRLVQAGGTLRLSCAASGRIFGDYAMGWYRQAPGKERELVAVISVGGRTTYADSVKGRFTISRDNAKNTVYLQMNSLKPEDTAVYYCATRLSTRDGGYRGQGTQVTVSS", "polyreactivity (PSR sort gate)": "low polyreactivity"},
      {"sequence": "QVQLVESGGRLVQAGRSLRLSCAASGRTFGRYAMGWYRQAPGKERELVAAITRGGGSTYYADSVKGRFTISRDNAKYTVSLQMNSLKPEDTAVYYCAARNFRSPYGYDYWGQGTQVTVSS", "polyreactivity (PSR sort gate)": "high polyreactivity"},
      {"sequence": "QVQLVESGGRLVQAGVSLRLSCAAGGRTFGINAMGWYRQAPGKERELVARIRKTVGSTYYADSVKGRFTISRDNAKNTVYLQMNSLKPEDTAVYYCNADYDAYPRYIRYGYWGQGTQVTVSS", "polyreactivity (PSR sort gate)": "high polyreactivity"},
      {"sequence": "QVQLVESGGRLVQARGSLRLSCAASRSTFPFYYMGWYRQAPGKERELVAAHTRRCGSTYYAVSVKGRFTISRDNGKNTFYLQMNSLKPEDTAVYYCAADDYTITIYYILDYWGQGTQVTVSS", "polyreactivity (PSR sort gate)": "low polyreactivity"},
      {"sequence": "QVQLVESGGRLVQGGGSLRLSCAASGITFKGYTMGWYRQAPGKERELVATISRGGRTYADSVKGRFTISRDNAKNTVYLQMNSLKPEDSAVYYCAADKYWAQNDYWGQGTQVTVSS", "polyreactivity (PSR sort gate)": "low polyreactivity"},
      {"sequence": "QVQLVESGGSLVQAGGSLRLSCAASGRIFYYNAMGWYRQAPGKERELVAAISWSGGSTYYADSVKGRFTISRDNAKNTVYLQMNSLKPEDTAVYYCAVDVYGYTPRPTREPLIYEYWGQGTQVTVSS", "polyreactivity (PSR sort gate)": "low polyreactivity"},
      {"sequence": "QVQLVESGGSLVQARGSLRLSCAASGFIFPYYVMGGYRHAPGQERELVAAITCGGITYYAESVKGRFTISRDNAKNTVYFLMTSLKPEDTVVYYCAAENKYFYAWGSFVDDEYWGQGTQVTVSS", "polyreactivity (PSR sort gate)": "high polyreactivity"},
      {"sequence": "QVQLVESGGVLDQAGGSLRLICAASGITLFHYVMGWYRQAPGKEMELVAVISSSGGSTYYADSVKGRFTISRDNAKNTVYLQMNSLKPEDTAVYYCAAETDSRKARVLYDYWGQGTQVTVSS", "polyreactivity (PSR sort gate)": "high polyreactivity"},
      {"sequence": "QVQLVESGGVLDQAGGSLRLSFAASGFTFGAYAMGWYRHAPGKETELVASISWSGGSTYYADSVKGRFTISRDNAKNPVYLQMNSVKPEDTAVYYCNKDFVYPEDDGLFDFWGQGTQVTVSS", "polyreactivity (PSR sort gate)": "low polyreactivity"},
      {"sequence": "QVQLVESGGVLDQAGRSLRLSCAASGRTFNRYAMGWYRQAPGKERDLVAAISSSGGSTYYADSVKGRFTISRDNAKNTVYLQMNSLKPEDTAVYYCNKGQYSHLNSYGDDYWGQGTQVTVSS", "polyreactivity (PSR sort gate)": "high polyreactivity"},
      {"sequence": "QVQLVESGGVLLQAGGSLRLTCAASGSIFQYNALVGYRQAPGKVREFVAAITRGDSTYYADSVKGRFTISRDNAKNTVYLQMNSLKADDTAVYYCAKRGWFYGGRDYWGQGTQVTVSS", "polyreactivity (PSR sort gate)": "high polyreactivity"},
      {"sequence": "QVQLVESGGVLVQAAGSLRLSCAASGRIFGYNAMGWYRQAPGSERDFVAAISPSGGSTYYADSLKGLFTISRDNAKITVYLQMNSLKPEDTGVYYCAARIGYRSWAWDAYEYWGQGTQVTVSS", "polyreactivity (PSR sort gate)": "low polyreactivity"},
      {"sequence": "QVQLVESGGVLVQAGGSLRISCAASGIIFSYYAMGWYRQAPGKERELVAAIYRRGTSTYYADSVKGRFTISRDNAKNTVYLQMNSLKPEDTAVYYCNKSPYYTVWSTRCNQFSRFYYWGQGTQVTVSS", "polyreactivity (PSR sort gate)": "high polyreactivity"},
      {"sequence": "QVQLVESGGVLVQAGGSLRISCAASGSIFGSYAMGWYRQAPGKEREFVAAIRRSSASTYYADSVKGRFTISRDNAKNTVYLQMYSLKPEDTAVYYCATQCYCYYGYRYRYAAYDYRGQGTQVTVSS", "polyreactivity (PSR sort gate)": "high polyreactivity"},
      {"sequence": "QVQLVESGGVLVQAGGSLRLICAASGSTFEFYAMGWYRQEPGKERELVARITWNGGNTYADSVKGRYTISRDNAKNNVYLQMNSLKPEDTSVYYCATDYVVGFYYWGQGTQVTVSS", "polyreactivity (PSR sort gate)": "low polyreactivity"},
      {"sequence": "QVQLVESGGVLVQAGGSLRLSCAASGFIFPYYAMGWYRPAPGKETELVAAIDQSGDSTYYADSVKGRFTISRDNAKNTVYLQMNSLKPEDTAVFYCAARAVGGVRGYRYDYWGQGTQVTVSS", "polyreactivity (PSR sort gate)": "high polyreactivity"},
      {"sequence": "QVQLVESGGVLVQAGGSLRLSCAASGFTFLVYAMGWYRQAPGKERELLAAITSGSSTTYADSVKGRFTISRDNAKNTVYLQMNSLKPEDTAVYYCAARPRLDVLVKRFYYWGQGTQVTVSS", "polyreactivity (PSR sort gate)": "high polyreactivity"},
      {"sequence": "QVQLVESGGVLVQAGGSLRLSCAASGFTFVSNDMGWYRQAPGKERELVAAIRYRGGDTYYADSVKGRFTISRDNAKNTVYLQMNSLKPEDTAVYYCATGKRAYSSYLFDYWGQGTQVTVSS", "polyreactivity (PSR sort gate)": "low polyreactivity"},
      {"sequence": "QVQLVESGGVLVQAGGSLRLSCAASGGIFGNYAMGWYRQAPGKERELVAVIDSSDGSTHYADSVKGRFTISRDNAKITVYLQMNSLKPEDTALYYCATQGFWNYWTFDYWGQGTQVTVSS", "polyreactivity (PSR sort gate)": "low polyreactivity"},
      {"sequence": "QVQLVESGGVLVQAGGSLRLSCAASGITFNSYAMGWYRQAPGKERELVASISWIGGSTYYADSVKGRFTISRDNAKNTVYFQMNSLKPEDTAVYYCAVDKGTDYYYDVDYWGQGTQVTVSS", "polyreactivity (PSR sort gate)": "low polyreactivity"},
      {"sequence": "QVQLVESGGVLVQAGGSLRLSCAASGLIFPSYALGWYRQAPGKERELVAAITFSGSDTNYADSVKGRFTISRDNAKNTVSLQMKSLKPEDTAVYYCAAAYFDFWGWLHDYWGQGTQVTVSS", "polyreactivity (PSR sort gate)": "low polyreactivity"}
    ]}
  ]
}
